According to US20180155451A1 (published 2018):

B1: GpH7-A5/GpH7-B3 variant Q295_15Y/GpL16-k0 (antibody, human IgG1, kappa)
heavy 1: not shown
heavy 2: not shown
light: DIVMTQSPLSLPVTPGEPASISCQASESLVHSNRNTYLHWYLQKPGQSPQLLIYKVSNRFSGVPDRFSGSGSGTDFTLKISRVEAEDVGVYYCSQNTHVPPTFGQGTKVEIERTVAAPSVFIFPPSDEQLKSGTASVVCLLNNFYPREAKVQWKVDNALQSGNSQESVTEQDSKDSTYSLSSTLTLSKADYEKHKVYACEVTHQGLSSPVTKSFNRGEC
notes: heterodimerized antibody, mutation in the GpH7-B3 chain only; also called He Ab
B2: GpH7-A5/GpH7-B3 variant Q295_16H/GpL16-k0 (antibody, human IgG1, kappa)
heavy 1: not shown
heavy 2: not shown
light: B1 light
notes: as for B1
B3: GpH7-A5/GpH7-B3 variant Q295_18N/GpL16-k0 (antibody, human IgG1, kappa)
heavy 1: not shown
heavy 2: not shown
light: B1 light
notes: as for B1
B4: GpH7-A5/GpH7-B3 variant Q295_20W/GpL16-k0 (antibody, human IgG1, kappa)
heavy 1: not shown
heavy 2: not shown
light: B1 light
notes: as for B1
B5: GpH7-A5/GpH7-B3 variant S298_01G/GpL16-k0 (antibody, human IgG1, kappa)
heavy 1: not shown
heavy 2: not shown
light: B1 light
notes: as for B1
B6: GpH7-A5/GpH7-B3 variant S298_02A/GpL16-k0 (antibody, human IgG1, kappa)
heavy 1: not shown
heavy 2: not shown
light: B1 light
notes: as for B1
B7: GpH7-A5/GpH7-B3 variant S298_03V/GpL16-k0 (antibody, human IgG1, kappa)
heavy 1: not shown
heavy 2: not shown
light: B1 light
notes: as for B1
B8: GpH7-A5/GpH7-B3 variant S298_04F/GpL16-k0 (antibody, human IgG1, kappa)
heavy 1: not shown
heavy 2: not shown
light: B1 light
notes: as for B1
B9: GpH7-A5/GpH7-B3 variant S298_05P/GpL16-k0 (antibody, human IgG1, kappa)
heavy 1: not shown
heavy 2: not shown
light: B1 light
notes: as for B1
B10: GpH7-A5/GpH7-B3 variant S298_07I/GpL16-k0 (antibody, human IgG1, kappa)
heavy 1: not shown
heavy 2: not shown
light: B1 light
notes: as for B1
B11: GpH7-A5/GpH7-B3 variant S298_09D/GpL16-k0 (antibody, human IgG1, kappa)
heavy 1: not shown
heavy 2: not shown
light: B1 light
notes: as for B1
B12: GpH7-A5/GpH7-B3 variant V266_16H/GpL16-k0 (antibody, human IgG1, kappa)
heavy 1: not shown
heavy 2: not shown
light: B1 light
notes: as for B1
B13: GpH7-A5/GpH7-B3 variant Y296_01G/GpL16-k0 (antibody, human IgG1, kappa)
heavy 1: not shown
heavy 2: not shown
light: B1 light
notes: as for B1
B14: GpH7-A5/GpH7-B3 variant Y296_03V/GpL16-k0 (antibody, human IgG1, kappa)
heavy 1: not shown
heavy 2: not shown
light: B1 light
notes: as for B1
B15: GpH7-A5/GpH7-B3 variant Y296_05P/GpL16-k0 (antibody, human IgG1, kappa)
heavy 1: not shown
heavy 2: not shown
light: B1 light
notes: as for B1
B16: GpH7-A5/GpH7-B3 variant Y296_11K/GpL16-k0 (antibody, human IgG1, kappa)
heavy 1: not shown
heavy 2: not shown
light: B1 light
notes: as for B1
B17: GpH7-A5/GpH7-B3 variant Y296_12R/GpL16-k0 (antibody, human IgG1, kappa)
heavy 1: not shown
heavy 2: not shown
light: B1 light
notes: as for B1

The binders below were run against T1, FcγRIIa R (human, UniProt P12318 34-217) (assay: SPR; He/Con_2aR divided by He/Con_2b (FcγRIIb as reference)).
T1 construct: extracellular domain; also called FcgRIIa R type; 2aR
T1 sequence (looked up): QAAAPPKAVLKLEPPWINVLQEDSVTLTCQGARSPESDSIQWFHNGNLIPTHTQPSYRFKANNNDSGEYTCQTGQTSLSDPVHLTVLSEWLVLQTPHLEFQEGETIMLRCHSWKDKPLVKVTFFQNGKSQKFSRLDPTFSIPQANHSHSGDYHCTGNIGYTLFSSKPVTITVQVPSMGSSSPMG
Procedure: (§1) The heterodimerized antibodies He Abs in which one of the H chains was introduced with an alteration were assayed for their binding activities to each activating FcγR and inhibitory FcγR according to the method described in Example 4. […] The activating FcγRs in FIGS. 26, 27, 28, and 29 are FcγRIa, FcγRIIa (R), FcγRIIa (H), and FcγRIIIa, respectively.
(§2) Analysis of interaction between objective antibody and the FcγR was carried out using Biacore T100 (GE Healthcare). HBS-EP+ (GE Healthcare) was used as the running buffer, and the measurement temperature was set to 25° C. Chips produced by immobilizing the antigen peptide by the amine coupling method to a Series S Sencor Chip CM5 (GE Healthcare), or alternatively, chips produced by allowing preliminarily biotinylated antigen peptides to interact with and immobilize onto a Series S Sensor Chip SA (certified) (GE Healthcare) were used. Antibodies of interest were captured onto an antigen peptide-immobilized chip, and allowed to interact to each FcγR diluted with running buffer. To regenerate and repeatedly use the chip, the antibodies captured on the chip were washed off by reacting 10 mM glycine-HCl, pH 1.5.

Binder | IIaR/IIb (He_2aR/2b) [ratio]
B1 | 1.27
B2 | 1.3
B3 | 1.27
B4 | 1.35
B5 | 1.23
B6 | 1.24
B7 | 1.34
B8 | 1.29
B9 | 1.34
B10 | 1.28
B11 | 1.4
B12 | 1.34
B13 | 1.21
B14 | 1.21
B15 | 1.3
B16 | 1.3
B17 | 1.25

The binders below were run against T1, FcγRIIa R (assay: SPR (Biacore), antibody captured, FcγR as analyte; relative binding).
Procedure: as §1, §2

Binder | He/Con_2aR (IIaR binding)
B1 | 82.8 % of GpH7-A5/GpH7-B3/GpL16-k0 (=100)
B2 | 81.3 % of GpH7-A5/GpH7-B3/GpL16-k0 (=100)
B3 | 82.4 % of GpH7-A5/GpH7-B3/GpL16-k0 (=100)
B4 | 60 % of GpH7-A5/GpH7-B3/GpL16-k0 (=100)
B5 | 98.8 % of GpH7-A5/GpH7-B3/GpL16-k0 (=100)
B6 | 91.2 % of GpH7-A5/GpH7-B3/GpL16-k0 (=100)
B7 | 86.3 % of GpH7-A5/GpH7-B3/GpL16-k0 (=100)
B8 | 84 % of GpH7-A5/GpH7-B3/GpL16-k0 (=100)
B9 | 16 % of GpH7-A5/GpH7-B3/GpL16-k0 (=100)
B10 | 90.1 % of GpH7-A5/GpH7-B3/GpL16-k0 (=100)
B11 | 67.8 % of GpH7-A5/GpH7-B3/GpL16-k0 (=100)
B12 | 76.5 % of GpH7-A5/GpH7-B3/GpL16-k0 (=100)
B13 | 95.8 % of GpH7-A5/GpH7-B3/GpL16-k0 (=100)
B14 | 96.2 % of GpH7-A5/GpH7-B3/GpL16-k0 (=100)
B15 | 47.7 % of GpH7-A5/GpH7-B3/GpL16-k0 (=100)
B16 | 94.3 % of GpH7-A5/GpH7-B3/GpL16-k0 (=100)
B17 | 99.6 % of GpH7-A5/GpH7-B3/GpL16-k0 (=100)

The binders below were run against T2, FcγRIIb (human, UniProt P31994 43-217) in the same assay as above.
T2 construct: extracellular domain; also called FcgRIIb; 2b
T2 sequence (looked up): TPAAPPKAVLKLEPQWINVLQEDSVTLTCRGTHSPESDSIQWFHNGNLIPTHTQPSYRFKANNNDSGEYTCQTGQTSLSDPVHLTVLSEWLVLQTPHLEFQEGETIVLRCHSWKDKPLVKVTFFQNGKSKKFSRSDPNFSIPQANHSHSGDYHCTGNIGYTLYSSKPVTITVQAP
Procedure: as §1, §2

Binder | He/Con_2b (IIb binding)
B1 | 65.4 % of GpH7-A5/GpH7-B3/GpL16-k0 (=100)
B2 | 62.7 % of GpH7-A5/GpH7-B3/GpL16-k0 (=100)
B3 | 64.9 % of GpH7-A5/GpH7-B3/GpL16-k0 (=100)
B4 | 44.4 % of GpH7-A5/GpH7-B3/GpL16-k0 (=100)
B5 | 80.1 % of GpH7-A5/GpH7-B3/GpL16-k0 (=100)
B6 | 73.4 % of GpH7-A5/GpH7-B3/GpL16-k0 (=100)
B7 | 64.5 % of GpH7-A5/GpH7-B3/GpL16-k0 (=100)
B8 | 65.4 % of GpH7-A5/GpH7-B3/GpL16-k0 (=100)
B9 | 11.9 % of GpH7-A5/GpH7-B3/GpL16-k0 (=100)
B10 | 70.6 % of GpH7-A5/GpH7-B3/GpL16-k0 (=100)
B11 | 48.3 % of GpH7-A5/GpH7-B3/GpL16-k0 (=100)
B12 | 57.2 % of GpH7-A5/GpH7-B3/GpL16-k0 (=100)
B13 | 79.3 % of GpH7-A5/GpH7-B3/GpL16-k0 (=100)
B14 | 79.3 % of GpH7-A5/GpH7-B3/GpL16-k0 (=100)
B15 | 36.6 % of GpH7-A5/GpH7-B3/GpL16-k0 (=100)
B16 | 72.8 % of GpH7-A5/GpH7-B3/GpL16-k0 (=100)
B17 | 79.5 % of GpH7-A5/GpH7-B3/GpL16-k0 (=100)
